Here are results for 1 substance from patent US20250243240A1.

This assay deals with Vascular endothelial growth factor (VEGF) (Homo sapiens (Human)) (UniProt P15692).

For the substance “Peak 1 fraction of hydrophobic interaction chromatography of purified aflibercept (pool or library)”, the relative titer came out at 6.6%.
